From publication doi:10.1101/2025.05.02.651258, “The LOTUS domain of Oskar promotes localisation of both protein and mRNA components of Drosophila germ plasm” (bioRxiv, 2025)

Assays:
[1] = molecular target: the molecule itself; test: SEC; analytical SEC, Superose 6 PC 3.2/30, 5.0 mg/mL, 20 mM Tris pH 8.0 with 200, 500 or 1000 mM NaCl, 0.05 mL/min; apparent molecular weight from gel filtration standards
[2] = molecular target: the molecule itself; test: SEC-MALS; Superdex 75 10/300 GL, 10 mg/mL, 20 mM Tris pH 8.0, 200 mM NaCl; data not shown

B1: D. melanogaster Oskar LOTUS domain, residues 139-241 (Losk139–241), purified (domain or fragment)
chain: MTIIESNYISVREEYPDIDSEVRAILLSHAQNGITISSIKSEYRKLTGNPFPLHDNVTDFLLTIPNVTAECSESGKRIFNLKASLKNGHLLDMVLNQKERTSDLEVLFQ
notes: Oskar, D. melanogaster, LOTUS domain residues 139-241 (Losk139–241); numbers on the long isoform (1-606); remnant of the 3C protease cleavage site left at the C-terminus after removal of the decahistidine tag; Crystal form 4 was grown from HgCl2-derivatised protein; also called fly LOTUS domain; source: E. coli BL21(DE3), purified (Ni-NTA, 3C protease cleavage, gel filtration); not shown: His10, …
stoichiometry N [1]: ~2 | stoichiometry N [2]: 2
